Experiments:
[1] = biological target: T1, biotinylated human IL-2 with C-terminal biotin acceptor peptide (human, UniProt P60568 21-153, biotinylated with BirA ligase on the C-terminal biotin acceptor peptide); assay: flow cytometry on yeast displaying the scFv, 5 nM soluble biotinylated IL-2 co-incubated with soluble IL-2Rα
T1 construct: Immobilized on streptavidin tips in BLI and used as the soluble labelled ligand in the yeast display assays; also called biotinylated hIL-2; immobilized hIL-2
Protocol: (§1) Cells were then washed and stained with a 1:200 dilution of AlexaFluor 647-complexed streptavidin (Thermo Fisher Scientific) in PBSA for 15 minutes at 4° C. After a final wash, cells were analyzed for target binding using a CytoFLEX flow cytometer (Beckman Coulter). Background-subtracted and normalized binding curves were fitted to a first-order binding model and equilibrium dissociation constant (KD) values were determined using GraphPad Prism software.

[2] = biological target: T1, biotinylated human IL-2 with C-terminal …; assay: flow cytometry, titration of soluble biotinylated IL-2 on yeast displaying the scFv, streptavidin-AF647 detection
Protocol: as §1

[3] = biological target: T1, biotinylated human IL-2 with C-terminal …; assay: flow cytometry competition: soluble IL-2Rα titrated against 10 nM biotinylated IL-2; competitor is the yeast-displayed 602 scFv
[4] = biological target: T1, biotinylated human IL-2 with C-terminal …; assay: flow cytometry competition: soluble IL-2Rα titrated against 5 nM biotinylated IL-2; competitor is the yeast-displayed F10 scFv
[5] = biological target: T1, biotinylated human IL-2 with C-terminal …; assay: bio-layer interferometry (Octet), equilibrium titration on immobilized hIL-2

B1: yeast-displayed F10 single-chain variable fragment (variant of the 602 scFv) (scFv)
scFv: EVQLQESGPGLVAPSQSLSITCTVSGFSLTNYDISWIRQPPGKGLEWLGVIWTGGGTNYNSGFMSRLSITKDNSKSQVFLKMNSLQTDDTAIYYCVRQGRSPYWGQGTLVTVSAGGGGSGGGGSGGGGSDIQVTQSPSSLSVSLGDRVTITCKASKDIYNRLAWYQQKPGNAPRLLISGATSLETGVPSRFSGSGSGKDYTLTITSLQTEDVATYYCQQSWDTPYTFGGGTKLEIK
notes: also called F10 scFv; evolved F10 scFv; not shown: N-terminal Aga2, (G4S)3 linker, 3C and factor Xa cleavage sites; C-terminal c-Myc tag
binding result [1]: binds

B2: yeast-displayed 602 single-chain variable fragment (VH-(G4S)3-VL, fused to Aga2) (scFv)
scFv: EVQLQESGPGLVAPSQSLSITCTVSGFSLTNYDISWIRQPPGKGLEWLGVIWTGGGTNYNSGFMSRLSITKDNSKSQVFLKMNSLQTDDTAIYYCVRQGRTPYWGQGTLVTVSAGGGGSGGGGSGGGGSDIQVTQSPSSLSVSLGDRVTITCKASKDIYNRLAWYQQKPGNAPRLLISGATSLETGVPSRFSGSGSGKDYTLTITSLQTEDVATYYCQQFWGTPYTFGGGTKLEIK
notes: not shown: N-terminal Aga2, (G4S)3 linker, 3C and factor Xa cleavage sites; C-terminal c-Myc tag
EC50 (read off the curve) [2]: ~10 nM

B3: human IL-2Rα extracellular domain, soluble, with C-terminal hexahistidine tag (receptor)
chain: ELCDDDPPEIPHATFKAMAYKEGTMLNCECKRGFRRIKSGSLYMLCTGNSSHSSWDNQCQCTSSATRNTTKQVTPQPEEQKERKTTEMQSPMQPVDQASLPGHCREPPPWENEATERIYHFVVGQMVYYQCVQGYRALHRGPAESVCKMTHGKTRWTQPQLICTGEMETSQFPGEEKPQASPEGRPESETSCLVTTTDFQIQTEMAATMETSIFTTEYQHHHHHH
notes: extracellular domain; also called soluble IL-2Rα
IC50 (read off the curve) [3]: ~60 nM | IC50 (read off the curve) [4]: ~300 nM

B4: recombinant 602 antibody (anti-human IL-2), mouse IgG2a kappa (antibody, V domains shown)
VH: EVQLQESGPGLVAPSQSLSITCTVSGFSLTNYDISWIRQPPGKGLEWLGVIWTGGGTNYNSGFMSRLSITKDNSKSQVFLKMNSLQTDDTAIYYCVRQGRTPYWGQGTLVTVSA
VL: DIQVTQSPSSLSVSLGDRVTITCKASKDIYNRLAWYQQKPGNAPRLLISGATSLETGVPSRFSGSGSGKDYTLTITSLQTEDVATYYCQQFWGTPYTFGGGTKLEIKR
notes: They are built here from the component entries so that the signal peptides are left out; also called MAB602
Kd [5]: 3.5 nM
